# Assay results as given in IntAct's records for PubMed 15604664.
# B1: Floral homeotic protein … (Arabidopsis thaliana (Mouse-ear cress)), P48007 (parent)
# chain: MGRGKIEIKRIENANNRVVTFSKRRNGLVKKAKEITVLCDAKVALIIFASNGKMIDYCCPSMDLGAMLDQYQKLSGKKLWDAKHENLSNEIDRIKKENDSLQLELRHLKGEDIQSLNLKNLMAVEHAIEHGLDKVRDHQMEILISKRRNEKMMAEEQRQLTFQLQQQEMAIASNARGMMMRDHDGQFGYRVQPIQPNLQEKIMSLVID
# Variants of: B1
# Conditions: with sep3_arath SEP3, O22456
# Chain of sep3_arath SEP3, O22456 (O22456 whole entry): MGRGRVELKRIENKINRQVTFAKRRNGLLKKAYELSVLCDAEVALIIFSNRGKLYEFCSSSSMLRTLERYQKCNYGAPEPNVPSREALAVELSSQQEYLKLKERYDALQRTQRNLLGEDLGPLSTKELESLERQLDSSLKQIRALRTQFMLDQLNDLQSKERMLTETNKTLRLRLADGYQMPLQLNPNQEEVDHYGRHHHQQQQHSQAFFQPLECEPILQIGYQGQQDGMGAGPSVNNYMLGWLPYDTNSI
row,Variant,effect of a mutation on the interaction
1,MGRGKIEIKRIENANNRVVTFSKRRNGLVKKAKEITVLCDAKVALIIFASNGKMIDYCCPSMDLGAMLDQYQKLSGKKLWDAKHENLSNEIDRIKKENDSLQLELRHLKGEDIQFLNLIILMAVEHAIEHGLDKVRDHQMEILISKRRNEKMMAEEQRQLTFQLQQQEMAIASNARGMMMRDHDGQFGYRVQPIQPNLQEKIMSLVID [S115F;K119I;N120I],decreasing interaction
2,MGRGKIEIKRIENANNRVVTFSKRRNGLVKKAKEITVLCDAKVALIIFASNGKMIDYCCPSMDLGAMLDQYQKLSGKKLWDAKHENLSNEIDRIKKENDSLQLELRHLKGEDIQSLNLKNLKAVEHAIEHGLDKVRDHQMKILISKRRNEKMMAEEQRQLTFQLQQQEMAIASNARGVMMRDHDGQFGYRVQPIQPNLQEKIMSLVID [M122K;E141K;M178V],decreasing interaction
3,MGRGKIEIKRIENANNRVVTFSKRRNGLVKKAKEITVLCDAKVALIIFASNGKMIDYCCPSMDLGAMLDQYQKLSGKKLWDAKHENLSNEIDRIKKENDSLQLELRHLKGEDIQSPNLKNLMAVEHAIEHGLDKVRDHQMEILISKRRNEKTMAEEQRQLTFQLQQQEMAIASNARGMMMRDHDGQFGYRVQPIQPNLQEKIMSLVID [L116P;M152T],decreasing interaction
4,MGRGKIEIKRIENANNRVVTFSKRRNGLVKKAKEITVLCDAKVALIIFASNGKMIDYCCPSMDLGAMLDQYQKLSGKKLWDAKHENLSNEIDRIKKENDSLQLELRHLKGEGIQSLNLKNLMAVEHAIEHGLDKVRDHQMEILISKRRNEKMMAEEQRQLTFQLQQQEMAIASNAGGMMMRDHDGQFGYRVQPIQPNLQEKIMSLVID [D112G;R176G],decreasing interaction
5,MGRGKIEIKRIENANNRVVTFSKRRNGLVKKAKEITVLCDAKVALIIFASNGKMIDYCCPSMDLGAMLDQYQKLSGKKLWDAKHENLSNEIDRIKKENGSLQLELRHLKGEDIQSLNLKNLMAVEHAIEHGLDKVRDHQMEILISKRRNEKMMAEEQRQLTFQLQQQEMAIASNARGMMMRDHDGQFGYRVQPIQPNLGEKIMSLVID [D99G;Q199G],decreasing interaction
6,MGRGKIEIKRIENANNRVVTFSKRRNGLVKKAKEITVLCDAKVALIIFASNGKMIDYCCPSMDLGAMLDQYQKLSGKKLWDAKHENLSNEIDRIKKENDSLQLELRHLKGEDIQSLNPKNLMAVEHAIEHGLDKVRDHQMEILISKRRDEKMMAEEQRQPTFQLQQQEMAIASNARGMMMRDHDGQFGYRVQPIQPNLQEKIMSLVID [L118P;N149D;L160P],decreasing interaction

# The next lines start with the values.
row,effect of a mutation on the interaction,Variant
1,decreasing interaction,MGRGKIEIKRIENANNRVVTFSKRRNGLVKKAKEITVLCDAKVALIIFASNGKMIDYCCPSMDLGAMLDQYQKLSGKKLWDAKHENLSNEIDRIKKENDSLQLELRHLKGEDIQSLNLKNLMAVGHAIEHGLDKVRDHQMEILISKRRNEKMMAEEQRQLTFQLQQQEMAIASNARGMMMRDHDGQFGYRVQPIQPNLQEKIMSLVID [E125G]
2,decreasing interaction,MGRGKIEIKRIENANNRVVTFSKRRNGLVKKAKEITVLCDAKVALIIFASNGKMIDYCCPSMDLGAMLDQYQKLSGKKLWDAKHENLSSEIDRIKKENDSLQLELRHLKGEDIQSLNLKNLMAVEHAIEHGLDKVRDHQMEILISKRRNEKVMAEEQRQLTFQLQQQEMAIASNARGMMMRDHDGQFGYRVQPIQPNLQEKIMSLVID [N89S;M152V]
3,decreasing interaction,MGRGKIEIKRIENANNRVVTFSKRRNGLVKKAKEITVLCDAKVALIIFASNGKMIDYCCPSMDLGAMLDQYQKLSGKKLWDAKHENLSNEIDRIKKENDSLQLEPRHLKGEAIQSLNLKNLMAVGHAIEHGLDKVRDHQMEILISKRRNEKMMAEEQRQLTFQLQQQEMAIASNARGMMMRDHDGQFGYRVQPIQPNLQEKIMSLAID [L105P;D112A;E125G;V206A]
4,decreasing interaction,MGRGKIEIKRIENANNRVVTFSKRRNGLVKKAKEITVLCDAKVALIIFASNGKMIDYCCPSMDLGAMLDQYQKLSGKKLWDAKHENLSNEIDRIKKENDSLQLELRHLKGEDIQSLNLKNLMADEHAIEHGLDKVRDHQMEILISKRRNEKMMAEEQRQLTFQLQQQEMAIASNARGMMMRDHDGQFGYRVQPIQPNLQEKIMSLVID [V124D]
5,decreasing interaction,MGRGKIEIKRIENANNRVVTFSKRRNGLVKKAKEITVLCDAKVALIIFASNGKMIDYCCPSMDLGAMLDQYQKLSGKKLWDAKHENLSNEIDRIKKENDSLQLELRHLKGEDIQSLNLKNPMAVEHAIEHGLDKVRDHQMEILISKRRNEKMMAEEQRQLTFQLQQQEMAIASNARGMMMRDHDGQFGYRVQPIQPNLQEKIMSLVID [L121P]

# Variants of: B1
# Conditions: with sep3_arath SEP3, O22456
# Remark: another data set of the same source
row,Variant,effect of a mutation on the interaction
1,MGRGKIEIKRIENANNRVVTFSKRRNGLVKKAKEITVLCDAKVALIIFASNGKMIDYCCPSMDLGAMLDQYQKLSGKKLWDAKHENLSNEIDRIKKENDSLQLELRHLKGEDIQSLNLKNLMAVEHAIEHGLDKVRDHQMEILISKRRNEKMMAEEQRQPTFQLQQQEMAIASNARGMMMRDHDGQFGYRVQPIQPNLQEKIMSLVID [L160P],increasing interaction
2,MGRGKIEIKRIENANNRVVTFSKRRNGLVKKAKEITVLCDAKVALIIFASNGKMIDYCCPSMDLGAMLDQYQKLSGKKLWDAKHENLSNEIDRIKKENDSLQLELRHLKGEDIQSLNLKNLMAVEHAIEHGLDKVRDHQMEILISKRRNEKMMAEEQRQLTFQLQQQEMAIASNARPMMMRDHDGQFGYRVQPIQPNLQEKIMSLVID [G177P],increasing interaction
3,MGRGKIEIKRIENANNRVVTFSKRRNGLVKKAKEITVLCDAKVALIIFASNGKMIDYCCPSMDLGAMLDQYQKLSGKKLWDAKHENLSNEIDRIKKENDSLQLELRHLKGEDIQSLNLKNLMAVEHAIEHGLDKVRDHQMEILISKRRNEKMMPEEQRQLTFQLQQQEMAIASNARGMMMRDHDGQFGYRVQPIQPNLQEKIMSLVID [A154P],decreasing interaction
4,MGRGKIEIKRIENANNRVVTFSKRRNGLVKKAKEITVLCDAKVALIIFASNGKMIDYCCPSMDLGAMLDQYQKLSGKKLWDAKHENLSNEIDRIKKENDSLQLELRHLKGEDIQSLNLKNLMAVEHAIEHPLDKVRDHQMEILISKRRNEKMMAEEQRQLTFQLQQQEMAIASNARGMMMRDHDGQFGYRVQPIQPNLQEKIMSLVID [G131P],decreasing interaction
5,MGRGKIEIKRIENANNRVVTFSKRRNGLVKKAKEITVLCDAKVALIIFASNGKMIDYCCPSMDLGAMLDQYQKLSGKKLWDAKHENLSNEIDRIKKENDSLQLELRHLKGEDIQSLNLKNLMAVEHAIEHGLDKVRDHQMEILISKRRNEKMPAEEQRQLTFQLQQQEMAIASNARGMMMRDHDGQFGYRVQPIQPNLQEKIMSLVID [M153P],decreasing interaction
6,MGRGKIEIKRIENANNRVVTFSKRRNGLVKKAKEITVLCDAKVALIIFASNGKMIDYCCPSMDLGAMLDQYQKLSGKKLWDAKHENPSNEIDRIKKENDSLQLELRHLKGEDIQSLNLKNLMAVEHAIEHGLDKVRDHQMEILISKRRNEKMMAEEQRQLTFQLQQQEMAIASNARGMMMRDHDGQFGYRVQPIQPNLQEKIMSLVID [L87P],decreasing interaction
7,MGRGKIEIKRIENANNRVVTFSKRRNGLVKKAKEITVLCDAKVALIIFASNGKMIDYCCPSMDLGAMLDQYQKLSGKKLWDAKHENLSNEIDRIKKENDSLQLELRHLKGEDIQSLNLKNLMAVEHAIEHGLDKVRDHQMEILISKRRNEKMMAEEQRQLTFQLQQPEMAIASNARGMMMRDHDGQFGYRVQPIQPNLQEKIMSLVID [Q167P],increasing interaction

# Second part, the variant after the results:
row,effect of a mutation on the interaction,Variant
1,decreasing interaction,MGRGKIEIKRIENANNRVVTFSKRRNGLVKKAKEITVLCDAKVALIIFASNGKMIDYCCPSMDLGAMLDQYQKLSGKKLWDAKHENLSNEIDRIKKENDSLQPELRHLKGEDIQSLNLKNLMAVEHAIEHGLDKVRDHQMEILISKRRNEKMMAEEQRQLTFQLQQQEMAIASNARGMMMRDHDGQFGYRVQPIQPNLQEKIMSLVID [L103P]
2,decreasing interaction,MGRGKIEIKRIENANNRVVTFSKRRNGLVKKAKEITVLCDAKVALIIFASNGKMIDYCCPSMDLGAMLDQYQKLSGKKLWDAKHENLSNEIDRIKKENDSLQLELRHLKPEDIQSLNLKNLMAVEHAIEHGLDKVRDHQMEILISKRRNEKMMAEEQRQLTFQLQQQEMAIASNARGMMMRDHDGQFGYRVQPIQPNLQEKIMSLVID [G110P]
3,decreasing interaction,MGRGKIEIKRIENANNRVVTFSKRRNGLVKKAKEITVLCDAKVALIIFASNGKMIDYCCPSMDLGAMLDQYQKLSGKKLWDAKHENLSNEIDRIKKENDSLQLELRHLKGEDIQSPNLKNLMAVEHAIEHGLDKVRDHQMEILISKRRNEKMMAEEQRQLTFQLQQQEMAIASNARGMMMRDHDGQFGYRVQPIQPNLQEKIMSLVID [L116P]
4,increasing interaction,MGRGKIEIKRIENANNRVVTFSKRRNGLVKKAKEITVLCDAKVALIIFASNGKMIDYCCPSMDLGAMLDQYQKLSGKKLWDAKHENLSNEIDRIKKENDSLQLELRHLKGEDIQSLNLKNLMAVEHAIEHGLDKVRDHQMEILISKRRPEKMMAEEQRQLTFQLQQQEMAIASNARGMMMRDHDGQFGYRVQPIQPNLQEKIMSLVID [N149P]
5,decreasing interaction,MGRGKIEIKRIENANNRVVTFSKRRNGLVKKAKEITVLCDAKVALIIFASNGKMIDYCCPSMDLGAMLDQYQKLSGKKLWDAKHENLSNEIDRIKKENDSLQLELRHLKGEDIQSLNLKNLMAVEHAIEHGPDKVRDHQMEILISKRRNEKMMAEEQRQLTFQLQQQEMAIASNARGMMMRDHDGQFGYRVQPIQPNLQEKIMSLVID [L132P]
6,decreasing interaction,MGRGKIEIKRIENANNRVVTFSKRRNGLVKKAKEITVLCDAKVALIIFASNGKMIDYCCPSMDLGAMLDQYQKLSGKKLWDAKHENLSNEIDRIKKENDSLQLELRHLKGEDIQSLNLKNLMAVEHAIEHGLDKVRDHQMEILIPKRRNEKMMAEEQRQLTFQLQQQEMAIASNARGMMMRDHDGQFGYRVQPIQPNLQEKIMSLVID [S145P]
7,decreasing interaction,MGRGKIEIKRIENANNRVVTFSKRRNGLVKKAKEITVLCDAKVALIIFASNGKMIDYCCPSMDLGAMLDQYQKLSGKKLWDAKHENLSNEIDRIKKENDSLPLELRHLKGEDIQSLNLKNLMAVEHAIEHGLDKVRDHQMEILISKRRNEKMMAEEQRQLTFQLQQQEMAIASNARGMMMRDHDGQFGYRVQPIQPNLQEKIMSLVID [Q102P]
8,decreasing interaction,MGRGKIEIKRIENANNRVVTFSKRRNGLVKKAKEITVLCDAKVALIIFASNGKMIDYCCPSMDLGAMLDQYQKLSGKKLWDAKHENLSNEIDRIKKENDSLQLELRHLKGEDIQSLNLKNLMAVEHAIEHGLDKVRDHQMEPLISKRRNEKMMAEEQRQLTFQLQQQEMAIASNARGMMMRDHDGQFGYRVQPIQPNLQEKIMSLVID [I142P]
